{"source": "patent US20080181869A1", "about": "“THERAPEUTICS TO FACILITATE CELL TRANSPLANTATION FOR LIVER DISEASE” (priority 2006, published 2008)", "origin": "cited, not measured here", "molecules": {"B1": {"name": "follistatin: peptide inhibitor of Activin A, a member of the transforming growth factor-beta superfamily (protein, UniProt P19883 30-344, looked up)", "Follistatin": "GNCWLRQAKNGRCQVLYKTELSKEECCSTGRLSTSWTEEDVNDNTLFKWMIFNGGAPNCIPCKETCENVDCGPGKKCRMNKKNKPRCVCAPDCSNITWKGPVCGLDGKTYRNECALLKARCKEQPELEVQYQGRCKKTCRDVFCPGSSTCVVDQTNNAYCVTCNRICPEPASSEQYLCGNDGVTYSSACHLRKATCLLGRSIGLAYEGKCIKAKSCEDIQCTGGKKCLWDFKVGRGRCSLCDELCPDSKSDEPVCASDNATYASECAMKEAACSSGVLLEVKHSGSCNSISEDTEEEEEDEDQDYSFPISSILEW"}}, "key": {"gene for TGF-β1": {"test_system": "gene for TGF-β1", "settings": "bleomycin-induced model of lung fibrosis, exogenous interferon-γ"}, "lung fibroblasts": {"test_system": "lung fibroblasts", "settings": "in vitro"}, "[1]": {"test_system": "hepatic stellate cells (HSCs)", "settings": "rat CCl4 model of liver damage"}, "[2]": {"test_system": "rat model of hypertension"}, "[3]": {"settings": "in vivo"}, "liver": {"test_system": "liver", "settings": "after hepatic resection"}, "tumor cell": {"test_system": "tumor cell", "settings": "in vitro or in vivo studies"}}, "data": [{"molecule": "interferon-γ: interferon that inhibits proliferation of lung fibroblasts", "values": [{"measurement": "transcription of the gene for TGF-β1", "setting": "gene for TGF-β1", "value": "down-regulated"}, {"measurement": "proliferation of lung fibroblasts", "setting": "lung fibroblasts", "value": "inhibits the proliferation of lung fibroblasts in a dose-dependent manner"}, {"measurement": "synthesis of protein in fibroblasts", "setting": "lung fibroblasts", "value": "reduces the synthesis of protein in fibroblasts"}]}, {"molecule": "relaxin", "values": [{"measurement": "collagen deposition by hepatic stellate cells", "setting": "[1]", "value": "inhibit collagen deposition"}, {"measurement": "cardiac and renal fibrosis", "setting": "[2]", "value": "reversing cardiac and renal fibrosis"}, {"measurement": "adverse events", "setting": "[3]", "value": "few adverse events"}]}, {"molecule": "B1", "values": [{"measurement": "liver weight", "setting": "liver", "value": "significantly increases liver weight"}, {"measurement": "reduction in fibrosis", "setting": "CCl4-exposed rats; CCl4-exposed rats treated with the peptide", "value": 32, "unit": "%"}, {"measurement": "decrease in hepatocyte apoptosis", "setting": "CCl4-exposed rats; CCl4-exposed rats, during treatment", "value": 87, "unit": "%"}, {"measurement": "time of maximal effect on hepatocyte apoptosis", "setting": "CCl4-exposed rats; week of follistatin treatment", "value": 4, "unit": "week"}, {"measurement": "TGF-β-induced secretion of collagen from HSC", "setting": "HSC", "value": "inhibit TGF-β-induced secretion of collagen"}, {"measurement": "tumor cell growth", "setting": "tumor cell", "value": "did not accelerate tumor cell growth"}]}]}
